Source: patent US20250051471A1 (WILLIAM ROBERT ARATHOON LIVING TRUST DATED AUGUST 29 2016, published 2025)
Changes are numbered by the printed parent chain.

B1: ABCB1XCD47 KBisP1.1 (15D3 HC KK/KT14 HC DD/MRK16 LC) (bispecific antibody, human IgG1, kappa)
heavy 1: not shown
heavy 2: not shown
light: DVLMTQTPVSLSVSLGDQASISCRSSQSIVHSTGNTYLEWYLQKPGQSPKLLIYKISNRFSGVPDRFSGSGSGTDFTLKISRVEAEDLGVYYCFQASHFPRTFGGGTKLEIKRTVAAPSVFIFPPSDEQLKSGTASVVCLLNNFYPREAKVQWKVDNALQSGNSQESVTEQDSKDSTYSLSSTLTLSKADYEKHKVYACEVTHQGLSSPVTKSFNRGEC
notes: also called KNJYBisP1.1
B2: KB1-1401 (bispecific antibody, human IgG1, kappa)
heavy chain 1 (anti-ABCB1, DD): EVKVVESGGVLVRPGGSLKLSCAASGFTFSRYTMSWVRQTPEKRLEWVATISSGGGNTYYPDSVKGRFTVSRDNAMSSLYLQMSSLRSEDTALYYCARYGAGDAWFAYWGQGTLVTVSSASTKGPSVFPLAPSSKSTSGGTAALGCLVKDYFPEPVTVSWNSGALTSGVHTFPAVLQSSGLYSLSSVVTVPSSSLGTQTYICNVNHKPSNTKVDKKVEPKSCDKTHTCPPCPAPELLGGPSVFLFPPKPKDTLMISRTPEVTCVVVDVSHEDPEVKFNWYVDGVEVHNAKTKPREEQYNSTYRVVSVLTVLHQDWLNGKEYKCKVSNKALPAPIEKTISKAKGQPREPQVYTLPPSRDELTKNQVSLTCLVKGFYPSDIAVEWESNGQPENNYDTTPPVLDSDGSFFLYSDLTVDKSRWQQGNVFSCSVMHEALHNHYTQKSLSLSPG
heavy chain 2 (anti-CD47, KK): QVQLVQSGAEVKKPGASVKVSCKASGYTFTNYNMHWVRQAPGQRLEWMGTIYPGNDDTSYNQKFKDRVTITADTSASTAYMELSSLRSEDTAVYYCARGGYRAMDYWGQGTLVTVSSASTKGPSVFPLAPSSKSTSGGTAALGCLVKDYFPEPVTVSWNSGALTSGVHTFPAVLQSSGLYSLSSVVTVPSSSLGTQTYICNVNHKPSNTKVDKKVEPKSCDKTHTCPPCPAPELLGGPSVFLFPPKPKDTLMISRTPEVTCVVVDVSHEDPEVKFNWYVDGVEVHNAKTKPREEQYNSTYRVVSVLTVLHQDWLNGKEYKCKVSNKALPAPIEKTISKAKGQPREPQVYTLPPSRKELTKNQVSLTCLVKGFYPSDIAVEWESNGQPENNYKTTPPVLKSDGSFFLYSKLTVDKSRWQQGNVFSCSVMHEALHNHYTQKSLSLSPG
light chain: B1 light
notes: also called 15D3DD KT14KK MRK16
B3: 15D3 hmz DD/KT14 KK/MRK16 hmz bispecific antibody (bispecific antibody, human IgG1)
heavy 1: not shown
heavy 2: not shown
VL: DIVMTQTPLSSPVTLGQPASISCRSSQSIVHSTGNTYLEWYQQRPGQPPRLLIYKISNRFSGVPDRFSGSGAGTDFTLKISRVEAEDVGVYYCFQASHFPRTFGGGTKLEIKR
notes: the general methods state a human kappa constant region
B4: anti-CD47 monoclonal antibody 5F9 (antibody, IgG1, V domains shown)
VH: QVQLVQSGAEVKKPGASVKVSCKASGYTFTNYNMHWVRQAPGQRLEWMGTIYPGNDDTSYNQKFKDRVTITADTSASTAYMELSSLRSEDTAVYYCARGGYRAMDYWGQGTLVTVSS
VL: DIVMTQSPLSLPVTPGEPASISCRSSQSIVYSNGNTYLGWYLQKPGQSPQLLIYKVSNRFSGVPDRFSGSGSGTDFTLKISRVEADVGVYYCFQGSHVPYTFGQGTKLEIK
notes: also called KT14; 5F9 KT14 mAb
B5: 15D3hmz16-1/KT14/MRK16v4a1 (bispecific antibody, V domains shown)
VH 1: EVQLVESGGVVVQPGGSLRLSCAASGFTFSRYTMSWVRQAPGKGLEWVATISSGGGNTYYPDSVKGRFTVSRDNSKNSLYLQMNSLRTEDTALYYCARYYRYDAWFAYWGQGTLVTVSS
VH 2: B4 VH
VL: DIVMTQTPLSSPVTLGQPASISCRSSQSIVHSTGNTYLEWYQQKPGQPPRLLIYKISNRFSGVPDRFSGSGSGTDFTLKISRVEAEDVGVYYCFQASHFPRTFGQGTKLEIK
notes: Human IgG1/kappa bispecific with KK/DD charge-pair Fc; also called 15D3hmz16-1 KK/KT14 DD/MRK16v4a1 Bispecific; 15D316-1 DD/KT14 KK/MRK16v4a1 hmz LC
B6: 15D3hmz16-1/KT14/MRK16v4a12 (bispecific antibody, V domains shown)
VH 1: B5 VH 1
VH 2: B4 VH
VL: B5 VL with I56V
notes: Human IgG1/kappa bispecific
B7: 15D3hmz HIR2/KT14 KbR1/B1VL6/CDR3v2a (bispecific antibody, human IgG1, kappa)
heavy 1: EVQLVESGGVVVQPGGSLRLSCAASGFTFSRYTMSWVRQAPGKGLEWVATISSGGGNTYYPDSVKGRFTVSRDNSKNSLYLQMNSLRTEDTALYYCARYGAGDAWFAYWGQGTLVTVSSASTKGPSVFPLAPSSKSTSGGTAALGCLVKDYFPEPVTVSWNSGALTSGVHTFPAVLQSSGLYSLSSVVTVPSSSLGTQTYICNVNHKPSNTKVDKRVEPKSCDKTHTCPPCPAPELLGGPSVFLFPPKPKDTLMISRTPEVTCVVVDVSHEDPEVKFNWYVDGVEVHNAKTKPREEQYNSTYRVVSVLTVLHQDWLNGKEYKCKVSNKALPAPIEKTISKAKGQPREPQVCTLPPSREEMTKNQVSLSCAVKGFYPSDIAVEWESNGQPENNYKTTPPVLDSDGSFVLVSKLTVDKSRWQQGNVFSCSVMHEALHNHYTQKSLSLSPG
heavy 2: not shown
light: DIVMTQSPLSLPVTPGEPASISCRSSQSLVHSNGNTYLEWYLQKPGQSPQLLIYKVSNRFSGVPDRFSGSGSGTDFTLKISRVEAEDVGVYYCFQGSHFPRTFGQGTKLEIKRTVAAPSVFIFPPSDEQLKSGTASVVCLLNNFYPREAKVQWKVDNALQSGNSQESVTEQDSKDSTYSLSSTLTLSKADYEKHKVYACEVTHQGLSSPVTKSFNRGEC
notes: Humanized ABCB1 x CD47 IgG1 bispecific with a common light chain
B8: 15D3VHhuIgG1DD/KT14KK/B1.89v1.huL1(KV2)hmz (bispecific antibody)
heavy 1: not shown
heavy 2: not shown
light: B7 light with S28T, L29I, N58K, G96A
notes: also called KB1-1421; 15D3VHhuIgG1DD/KT14KK/B1.89v1.huL1(KV2)hmzLC
B9: 15D3 hmz HIR2/KT14 KBR1/MRK16v4b (bispecific antibody, IgG1)
heavy 1: B7 heavy 1
heavy 2: not shown
light: B5 VL
notes: Humanized ABCB1 x CD47 IgG1 bispecific with a common light chain; the kappa constant region comes from the general cloning description; not shown: human kappa constant light chain
B10: 15D3 hmz HIR2/KT14 KbR1/B1.89v1.huL1(KV2) (bispecific antibody, human IgG1, kappa)
heavy 1: B7 heavy 1
heavy 2: not shown
light: B7 light with S28T, L29I, N58K, G96A
notes: as for B7

Legend:
human ABCB1 on cells [1] = biological target: T1, human ABCB1 on cells (human, UniProt P08183 1-1280); test: flow cytometry, DX5 WT cells (carry both ABCB1 and CD47), MFI
T1 construct: whole, on cells; also called MDR1; Pgp

[2] = biological target: T2, cynomolgus CD47 on red blood cells (cynomolgus, UniProt A0A5F8AK49 19-323 (rhesus entry)); test: flow cytometry on cynomolgus RBC, donor Cy745
T2 construct: whole, on cells; The assay target is the red blood cell; also called cynomolgus Red Blood Cells

[3] = biological target: T2, cynomolgus CD47 on red blood cells; test: flow cytometry on cynomolgus RBC, donor Cy746
human CD47 on cells [4] = biological target: T3, human CD47 on cells (human, UniProt Q08722 19-323); test: flow cytometry on human RBC, donor D837
T3 construct: also called hCD47; CD47 antigen

human ABCB1 on cells [5] = biological target: T1, human ABCB1 on cells; test: flow cytometry, DX5 CD47 knock-out cells ('DX5 KT14 KO'), MFI
human CD47 on cells [6] = biological target: T3, human CD47 on cells; test: flow cytometry on human RBC, donor D835
[7] = biological target: T2, cynomolgus CD47 on red blood cells; test: flow cytometry on cynomolgus RBC, donor Cy744
human CD47 on cells [8] = biological target: T3, human CD47 on cells; test: flow cytometry on human RBC, donor D836
human CD47 on cells [9] = biological target: T3, human CD47 on cells; test: flow cytometry on human RBC, donor D834
[10] = biological target: T2, cynomolgus CD47 on red blood cells; test: flow cytometry on cynomolgus RBC, donor Cy747
human ABCB1 on cells [11] = biological target: T1, human ABCB1 on cells; test: receptor occupancy assay on A2780ADR cells, curve 'BiS-Direct Binding' (PE anti-human IgG Fc); the cells carry both antigens, the target is named after the receptor whose free signal falls in the same panel
human CD47 on cells [12] = biological target: T3, human CD47 on cells; test: flow cytometry, DX5 B1 KO (ABCB1 knock-out) cells, % positive cells
[13] = biological target: T4, recombinant extracellular domain of human CD47-Fc fusion protein (human, UniProt Q08722 19-139); test: ELISA on plate-coated recombinant human CD47 extracellular domain-Fc, A450; x axis printed as log10 values under the unit nM
T4 construct: extracellular domain; also called huCD47 ECD; CD47-Fc fusion protein (R&D systems); not shown: Fc part of the bought fusion protein; not described

human CD47 on cells [14] = biological target: T3, human CD47 on cells; test: receptor occupancy assay on A2780ADR cells (carry both ABCB1 and CD47), flow cytometry; free CD47 detected with Alexa 647 anti-hCD47 CC2C6 (competitor), direct binding with PE anti-human IgG Fc
human ABCB1 on cells [15] = biological target: T1, human ABCB1 on cells; test: flow cytometry, DX5/ADR CD47 WT cells (carry both ABCB1 and CD47), % positive cells
human ABCB1 on cells [16] = biological target: T1, human ABCB1 on cells; test: flow cytometry, DX5 CD47 KO cells, % positive cells
human CD47 on cells [17] = biological target: T3, human CD47 on cells; test: flow cytometry on red blood cells (sentence follows Table 9, human RBC)
human ABCB1 on cells [18] = biological target: T1, human ABCB1 on cells; test: receptor occupancy assay on A2780ADR cells, curve 'BiS-Direct Binding' (PE anti-human IgG Fc); the cells carry both antigens, the target is named after the receptor whose free signal falls in the same panel; remark: listed apart in the source
human CD47 on cells [19] = biological target: T3, human CD47 on cells; test: receptor occupancy assay on A2780ADR cells, curve 'BiS-Direct Binding' (PE anti-human IgG Fc); the cells carry both antigens, the target is named after the receptor whose free signal falls most in the same panel
human CD47 on cells [20] = biological target: T3, human CD47 on cells; test: flow cytometry, DX5 B1 KO (ABCB1 knock-out) cells, % positive cells; remark: listed apart in the source
human ABCB1 on cells [21] = biological target: T1, human ABCB1 on cells; test: flow cytometry, DX5 CD47 KO cells, % positive cells; remark: listed apart in the source

Binder	EC50 (read off the curve) (human ABCB1 on cells [1])	% Positive [2]	% Positive [3]	% Positive (human CD47 on cells [4])	EC50 (read off the curve) (human ABCB1 on cells [5])	% Positive (human CD47 on cells [6])	% Positive [7]	% Positive (human CD47 on cells [8])	% Positive (human CD47 on cells [9])	% Positive [10]	also measured
B1	~10 nM	0.7%	2%	0.5%	~30 nM	0.4%	0.5%	0.3%	0.4%	3.7%	–
B2	–	–	–	–	–	–	–	–	–	–	EC50 (read off the curve) (human ABCB1 on cells [11]): ~200 nM; binding result (human CD47 on cells [12]): no binding (tested: about 660 nM)
B3	–	–	–	–	–	–	–	–	–	–	EC50 (read off the curve) [13]: ~0.08 nM
B4	–	98.8%	99.4%	99.1%	–	98.9%	99%	98.9%	99.1%	99%	EC50 (read off the curve) [13]: ~0.003 nM
B5	–	0.4%	1.5%	–	–	–	0.4%	–	–	5.7%	–
B6	–	–	–	–	–	–	–	–	0.4%	–	–
B7	–	–	–	–	–	–	–	–	–	–	binding result (human CD47 on cells [14]): binds; EC50 (read off the curve) (human ABCB1 on cells [15]): ~0.8 nM; EC50 (read off the curve) (human ABCB1 on cells [16]): ~5 nM
B8	–	2.2%	15.1%	0.4%	–	0.4%	0.7%	0.2%	0.7%	26.5%	binding result (human CD47 on cells [17]): no binding
B9	~10 nM	–	–	–	~20 nM	–	–	–	–	–	binding result (human CD47 on cells [12]): binds; EC50 (read off the curve) (human ABCB1 on cells [18]): ~200 nM
B10	~30 nM	10.6%	57.7%	1.6%	~50 nM	1.4%	7.9%	1.1%	2%	74.5%	EC50 (read off the curve) (human CD47 on cells [19]): ~200 nM; EC50 (read off the curve) (human CD47 on cells [20]): ~30 nM; EC50 (read off the curve) (human ABCB1 on cells [21]): ~0.4 nM
